# Assay results: paper PMC5505151, “A proteomic analysis of LRRK2 binding partners reveals interactions with multiple signaling components of the WNT/PCP pathway” (Molecular Neurodegeneration, 2017)
# B1: Prickle1-ECFP (natural protein, UniProt Q3U5C7 1-832, looked up)
# chain: MPLEMEPKMSKLVFGCQRSSTSDDDSGCALEEYAWVPPGLRPEQIQLYFACLPEEKVPYVNSPGEKHRIKQLLYQLPPHDNEVRYCQSLSEEEKKELQVFSAQRKKEALGRGTIKLLSRAVMHAVCEQCGLQMNGGEVAVFASRAGPGVCWHPSCFVCFTCNELLVDLIYFYQDGKIHCGRHHAELLKPRCSACDEIIFADECTEAEGRHWHMKHFCCLECETVLGGQRYIMKDGRPFCCGCFESLYAEYCETCGEHIGVDHAQMTYDGQHWHATEACFSCAQCKASLLGCPFLPKQGQIYCSKTCSLGEDIHASDSSDSAFQSARSRDSRRSVRMGRSSRSADQCRQSLLLSPALNYKFPGLSGNADDTLSRKLDDVSLASRQGAGFANEEFWKARVEQEASEDPEEWAEHEDYMTQLLLKFGDKNLFQQQSSEVDPRASEHWIPDNMVTNKPEVKPNHQGLASKKYQSDMYWAQSQDGLGDSAYGSHPGPASSRRLQELDLDHGAAGYTHDQSQWYEDSLECLSDLKPEQSIRDSMDSLALSNITGASVDGESKPRPSLYSLQNFEEIEAEDCEKMSNMGTLNSSMLHRSAESLQSLNSGLCPEKILPEEKPAHLPVLRRSKSQSRPQQVKFSDDVIDNGSYDIEIRQPPMSERTRRRAYHFEERGSRPHHHRHRRSRKSRSDNALNLVTERKYSAKDRLRLYTPDNYEKFIQNKSARELQAYMQNANLYSQYAHATSDYALQNPGMNRFLGLCGEDDDSWCSSSTSSSDSEEEGYFLGQPIPQPRPQRFTYYTDDLSSPASALPTPQFTQRTTKSKKKKGHKGKNCIIS
# Target: LRRK2 (wild type, transiently overexpressed; tagged construct not told for the experiment) (UniProt Q5S007 1-2527)
# Sequence (Q5S007 whole entry): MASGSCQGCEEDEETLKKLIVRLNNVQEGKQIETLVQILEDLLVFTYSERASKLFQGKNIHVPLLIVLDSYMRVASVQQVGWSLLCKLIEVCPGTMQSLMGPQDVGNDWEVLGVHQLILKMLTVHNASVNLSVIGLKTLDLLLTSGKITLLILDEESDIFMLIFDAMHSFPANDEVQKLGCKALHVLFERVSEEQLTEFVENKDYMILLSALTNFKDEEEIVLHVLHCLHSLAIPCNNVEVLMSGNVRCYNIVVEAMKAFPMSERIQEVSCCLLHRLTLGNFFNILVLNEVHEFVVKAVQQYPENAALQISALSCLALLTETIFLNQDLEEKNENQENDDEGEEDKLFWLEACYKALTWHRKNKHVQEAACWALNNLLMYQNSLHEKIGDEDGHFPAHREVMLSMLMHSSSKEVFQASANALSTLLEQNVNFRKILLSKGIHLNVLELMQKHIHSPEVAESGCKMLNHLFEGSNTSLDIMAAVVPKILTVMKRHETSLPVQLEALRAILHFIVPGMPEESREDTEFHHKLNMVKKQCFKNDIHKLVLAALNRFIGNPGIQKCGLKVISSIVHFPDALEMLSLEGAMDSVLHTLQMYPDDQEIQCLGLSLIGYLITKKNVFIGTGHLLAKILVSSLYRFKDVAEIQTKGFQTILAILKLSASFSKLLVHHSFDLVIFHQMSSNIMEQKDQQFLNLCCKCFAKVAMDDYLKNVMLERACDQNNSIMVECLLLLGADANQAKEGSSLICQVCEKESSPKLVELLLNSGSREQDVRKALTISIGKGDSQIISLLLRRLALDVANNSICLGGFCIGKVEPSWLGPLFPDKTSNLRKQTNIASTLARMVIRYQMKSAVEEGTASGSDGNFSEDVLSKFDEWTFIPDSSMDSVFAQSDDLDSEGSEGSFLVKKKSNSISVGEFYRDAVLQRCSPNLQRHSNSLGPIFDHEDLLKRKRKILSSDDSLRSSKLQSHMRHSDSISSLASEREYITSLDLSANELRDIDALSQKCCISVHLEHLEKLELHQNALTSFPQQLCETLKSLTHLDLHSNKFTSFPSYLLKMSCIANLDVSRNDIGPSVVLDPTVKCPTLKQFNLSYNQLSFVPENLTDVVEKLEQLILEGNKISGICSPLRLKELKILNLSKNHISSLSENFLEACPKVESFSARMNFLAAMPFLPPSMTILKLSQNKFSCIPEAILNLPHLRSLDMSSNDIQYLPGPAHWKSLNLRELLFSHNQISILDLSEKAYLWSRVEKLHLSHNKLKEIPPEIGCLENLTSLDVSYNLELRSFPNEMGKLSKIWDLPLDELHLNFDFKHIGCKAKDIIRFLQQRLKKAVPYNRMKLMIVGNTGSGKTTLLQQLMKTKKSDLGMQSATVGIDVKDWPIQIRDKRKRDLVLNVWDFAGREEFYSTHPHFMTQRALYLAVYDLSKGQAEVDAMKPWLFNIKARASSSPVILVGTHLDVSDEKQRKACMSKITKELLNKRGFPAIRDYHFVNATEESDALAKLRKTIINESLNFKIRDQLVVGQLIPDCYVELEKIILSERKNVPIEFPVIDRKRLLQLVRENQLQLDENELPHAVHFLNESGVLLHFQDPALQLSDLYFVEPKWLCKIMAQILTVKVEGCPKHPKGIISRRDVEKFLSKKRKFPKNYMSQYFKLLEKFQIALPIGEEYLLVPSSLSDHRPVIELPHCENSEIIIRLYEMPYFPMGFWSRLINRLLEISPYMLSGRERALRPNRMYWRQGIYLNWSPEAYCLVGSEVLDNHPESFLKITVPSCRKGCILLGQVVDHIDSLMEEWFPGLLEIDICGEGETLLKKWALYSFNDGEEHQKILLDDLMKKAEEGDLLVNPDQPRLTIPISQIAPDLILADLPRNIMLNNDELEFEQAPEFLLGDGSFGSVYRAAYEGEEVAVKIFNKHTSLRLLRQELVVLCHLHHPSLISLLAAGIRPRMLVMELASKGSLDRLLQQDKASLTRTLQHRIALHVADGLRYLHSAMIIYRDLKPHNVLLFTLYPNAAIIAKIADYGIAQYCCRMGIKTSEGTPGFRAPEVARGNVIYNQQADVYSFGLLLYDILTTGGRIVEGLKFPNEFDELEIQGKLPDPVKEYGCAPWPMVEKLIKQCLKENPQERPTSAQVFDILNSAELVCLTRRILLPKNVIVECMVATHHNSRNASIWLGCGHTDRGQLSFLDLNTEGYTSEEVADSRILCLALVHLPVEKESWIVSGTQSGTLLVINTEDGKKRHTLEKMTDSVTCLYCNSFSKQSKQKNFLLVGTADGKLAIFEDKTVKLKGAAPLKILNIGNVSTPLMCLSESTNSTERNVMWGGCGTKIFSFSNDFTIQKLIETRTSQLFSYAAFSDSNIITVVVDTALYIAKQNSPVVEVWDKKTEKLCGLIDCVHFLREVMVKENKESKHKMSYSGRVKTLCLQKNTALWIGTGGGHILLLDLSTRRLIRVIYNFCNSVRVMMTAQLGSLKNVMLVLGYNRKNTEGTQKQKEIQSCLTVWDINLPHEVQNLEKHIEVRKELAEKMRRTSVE
# Assay: cell-based or functional assay
binder,measurement,value
B1,"TOPFlash (WNT/β-catenin reporter) in HEK293T cells expressing DVL2, LRRK2 and PRICKLE1, fold of control (DVL2 with LRRK2 without PRICKLE1: ~130 fold)",~80 fold
